Results as given in PMC6454087 (Frontiers in Immunology, 2019).

B1: mouse WT sNASP (somatic nuclear autoantigenic sperm protein), B6 allele (natural protein)
chain: MATESTAAAAIAAELVSADKIEDAPAPSTSADKMESLDVDSEAKKLLGLGQKHLVMGDIPAAVNAFQEAASLLGKKYGETANECGEAFFFYGKSLLELARMENGVLGNALEGVHVEEEEGEKTEDESLVENNDNVDETEGSEEEDRENDKAEETPNESVLEKKSLQENEEEEIGNLELAWDMLDLAKIIFKRQETKEAQLYAAQAHLKLGEVSVESENYIQAVEEFQACLSLQEQYLEAHDRLLAETHYQLGLAYGYNSQYDEAVAQFGKSIDVIEKRMAVLHEQMKEAEGSFTEYEKEIEELKELLPEIREKIEDAKESQRSGNVAELALKATLVESSTSGFTPSGAGASVSMIASRKPTDGASSSNCVTDISHLVRKKRKPEEESPRKDDAKKAKQEPEVNGGSGDAVSSGKEVSENMEAEAENQAESQTAEGTVESAATIKSTAC
modifications: Somatic isoform of 448 aa = 773-aa tNASP entry lacking 325 residues (internal testis-specific exon). Junction 137/463 set by homology to human sNASP and the printed length, not printed in the paper. …
B2: mouse histone H1a (natural protein, UniProt P43275 1-213, looked up)
chain: MSETAPVAQAASTATEKPAAAKKTKKPAKAAAPRKKPAGPSVSELIVQAVSSSKERSGVSLAALKKSLAAAGYDVEKNNSRIKLGLKSLVNKGTLVQTKGTGAAGSFKLNKKAESKAITTKVSVKAKASGAAKKPKKTAGAAAKKTVKTPKKPKKPAVSKKTSKSPKKPKVVKAKKVAKSPAKAKAVKPKASKAKVTKPKTPAKPKKAAPKKK
notes: mouse histone H1a (H1.1); source: bought: Lifespan Biosciences

Tests used:
mouse histone H4 = mouse histone H4 (mouse, UniProt P62806 1-103); assay: BLI; Octet K2, 30 C; sNASP WT or variant immobilised on aminopropylsilane (APS) biosensors, histones in assay buffer at various concentrations (62.5 to 1,000 nM shown for H4), association 240 s; n = 4; details: both partners purified
[1] = biological target: B1; assay: as above; details: both partners purified

Row | Kd (mouse histone H4) | kon (mouse histone H4) | Kd [1] | kon [1] | Binder
1 | 40.7 nM | 1990 M⁻¹ s⁻¹ |  |  | B1
2 |  |  | 387 nM | 10100 M⁻¹ s⁻¹ | B2
